This passage reports relative band intensity (densitometry) results from article PMC4529235.

First the molecules themselves.
B1: ASIC1a-ΔCCt (H8-hASIC1a-C466A/C471A/C497A/C528Stop) [human] / itself (parent)
chain: MELKAEEEEVGGVQPVSIQAFASSSTLHGLAHIFSYERLSLKRALWALCFLGSLAVLLCVCTERVQYYFHYHHVTKLDEVAASQLTFPAVTLCNLNEFRFSQVSKNDLYHAGELLALLNNRYEIPDTQMADEKQLEILQDKANFRSFKPKPFNMREFYDRAGHDIRDMLLSCHFRGEVCSAEDFKVVFTRYGKCYTFNSGRDGRPRLKTMKGGTGNGLEIMLDIQQDEYLPVWGETDETSFEAGIKVQIHSQDEPPFIDQLGFGVAPGFQTFVACQEQRLIYLPPPWGTCKAVTMDSDLDFFDSYSITACRIDCETRYLVENCNCRMVHMPGDAPYCTPEQYKECADPALDFLVEKDQEYCVCEMPCNLTRYGKELSMVKIPSKASAKYLAKKFNKSEQYIGENILVLDIFFEVLNYETIEQKKAYEIAGLLGDIGGQMGLFIGASILTVLELFDYAYEVIKHKLARRGKAQKEAKRSSADKGVALSLDDVKRHNPAESLRGHPAGMTYAANILPHHPARGTFEDFT

This experiment covers variants of B1. Put plainly: BMOE crosslinking at the cell surface, SDS-PAGE under reducing conditions, anti-His-tag western blotting, band densitometry. The note with it: with itself; mean ±SEM, n = 4; read off a plot.
Regarding MELKAEEEEVGGVQPVSIQAFASSSTLHGLAHIFSYERLSLKRALWALCFLGSLAVLLVVCTERVQYYFHYHHVTKLDEVAASQLTFPAVTLCNLNEFRFSQVSKNDLYHAGELLALLNNRYEIPDTQMADEKQLEILQDKANFRSFKPKPFNMREFYDRAGHDIRDMLLSCHFRGEVCSAEDFKVVFTRYGKCYTFNSGRDGRPRLKTMKGGTGNGLEIMLDIQQDEYLPVWGETDETSFEAGIKVQIHSQDEPPFIDQLGFGVAPGFQTFVACQEQRLIYLPPPWGTCKAVTMDSDLDFFDSYSITACRIDCETRYLVENCNCRMVHMPGDAPYCTPEQYKECADPALDFLVEKDQEYCVCEMPCNLTRYGKELSMVKIPSKASAKYLAKKFNKSEQYIGENILVLDIFFEVLNYETIEQKKAYEIAGLLCDIGGQMGLFIGASILTVLELFDYAYEVIKHKLARRGKAQKEAKRSSADKGVALSLDDVKRHNPAESLRGHPAGMTYAANILPHHPARGTFEDFT [chain 1 G433C C59V], the relative band intensity (densitometry) stood at 0.22. Regarding MELKAEEEEVGGVQPVSIQAFASSSTLHGLAHIFSYERLSLKRALWALCFLGSLAVLLVVSTERVQYYFHYHHVTKLDEVAASQLTFPAVTLCNLNEFRFSQVSKNDLYHAGELLALLNNRYEIPDTQMADEKQLEILQDKANFRSFKPKPFNMREFYDRAGHDIRDMLLSCHFRGEVCSAEDFKVVFTRYGKCYTFNSGRDGRPRLKTMKGGTGNGLEIMLDIQQDEYLPVWGETDETSFEAGIKVQIHSQDEPPFIDQLGFGVAPGFQTFVACQEQRLIYLPPPWGTCKAVTMDSDLDFFDSYSITACRIDCETRYLVENCNCRMVHMPGDAPYCTPEQYKECADPALDFLVEKDQEYCVCEMPCNLTRYGKELSMVKIPSKASAKYLAKKFNKSEQYIGENILVLDIFFEVLNYETIEQKKAYEIAGLLCDIGGQMGLFIGASILTVLELFDYAYEVIKHKLARRGKAQKEAKRSSADKGVALSLDDVKRHNPAESLRGHPAGMTYAANILPHHPARGTFEDFT [chain 1 G433C C59V C61S], the relative band intensity (densitometry) is 0.18.
